Data on two molecules can be found in patent US20250296984A1, “THERAPEUTIC AND DIAGNOSTIC AGENTS AND USES THEREOF” (priority 2022, published 2025).

Assay [1] relates to US28 negative CHO control cells. Kind of assay: Flow cytometry off-target binding to US28 negative control CHO cells. Also on record: species or system Chinese Hamster. Conditions: 1:10 dilution (w/v), after removing binding to blank and secondary Ab controls. The source says:
FIG. 4. The positive surface binding of the clone US28-13-5G6-1D3 on CHO-US28-A1 cells was compared with the US28 negative CHO control cells. The clone US28-13-5G6-1D3 Ab bound 15-fold more to the surface of the US28 positive CHO-US28-A1 cells than to the US28 negative CHO cells in 1:50 (w/v).
FIG. 7. Surface binding of 13-5G6-1D3 rAb on CHO-US28-A1 cells, and on respective control CHO cells were validated by using FACS analysis. The bars showing results for CHO cells are colored with dark grey whereas the bars showing results for CHO-US28-A1 cells are colored with pale grey color. […] The surface binding of the 13-5G6-1D3 rAb to CHO cells was only measured in 1:10 dilution (w/v) and was 0.77% after removing the binding to blank and anti-mouse IgG-Alexa 488 secondary Ab controls.
FIG. 22. Percentage off-target binding of various ECD3-binding molecules of the invention (A) or various SEQ ID NO: 177-binding molecules of the invention (B), in comparison with VUN100, as assessed by binding to control CHO cells.
In a further embodiment, it is preferred that a binding molecule of the present invention binds preferentially to US28-expressing cells (such as CHO cells engineered to express US28) compared to its binding of US28-negative cells (such as wildtype CHO cells), for example, at a 1:50 (w/v) dilution, for example as determined by flow cytometry assay. […]

Assay [2] concerns the target T1, human proteins on HuProt Human Proteome Microarray (Homo sapiens, UniProt Q13895).
T1 construct: purchased CDI Labs (HuProt); host or cells: yeast S. cerevisiae
T1 sequence (Q13895 1-437): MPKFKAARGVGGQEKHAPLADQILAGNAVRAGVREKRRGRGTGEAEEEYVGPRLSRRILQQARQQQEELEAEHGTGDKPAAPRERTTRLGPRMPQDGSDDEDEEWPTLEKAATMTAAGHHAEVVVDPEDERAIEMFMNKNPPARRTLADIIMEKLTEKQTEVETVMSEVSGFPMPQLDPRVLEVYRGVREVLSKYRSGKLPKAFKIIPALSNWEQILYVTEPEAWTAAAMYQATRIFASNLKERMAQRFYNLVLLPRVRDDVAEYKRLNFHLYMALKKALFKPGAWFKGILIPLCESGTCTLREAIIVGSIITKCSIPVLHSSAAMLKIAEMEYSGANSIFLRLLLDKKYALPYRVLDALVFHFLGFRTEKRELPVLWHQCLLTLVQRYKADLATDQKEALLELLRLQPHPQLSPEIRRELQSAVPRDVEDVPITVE
Kind of assay: HuProt Human Proteome Microarray, off-target human proteins. Format: binding. Also on record: key to Z Score: Z = (F635 − mean F635 of all spots) / SD; average of duplicate spots. Conditions: Protein: BYSL. From the text: The HuProt™ Human Proteome Microarray provides the largest number of unique, full-length, individually purified human proteins on a single microscope slide. It provides >21,000 unique human proteins, isoform variants, and protein fragments—covering 16,794 unique genes. This includes 15,889 of the 19,613 canonical human proteins described in the Human Protein Atlas, with broad coverage across protein subclasses. This allows thousands of interactions to be profiled in a high-throughput manner. The full-length recombinant proteins are expressed in the yeast S. cerevisiae, purified, and printed on glass slides in duplicate along with a set of control proteins (GST, BSA, histones, IgG, etc.). The full list of the different proteins included in the HuProt™ Human Proteome Microarray as used in this Example is provided as “List B” in the Research Disclosures publication (ISSN 0374-4353, Questel Ireland Ltd) with database numbers 707018, 707019 and 707020, each entitled “Large scale protein arrange target protein identities” and each digitally published on 27 Jan. 2023, the contents of each of which are incorporated herein by reference in their entirety, fo the purposes of the disclosure of the proteins defined by “List B”. “List B” begins in Research Disclosures publication 707018, is continued in Research Disclosures publication 707019, and concludes Research Disclosures publications 707020, and so the three publications are to be read consecutively as a single disclosure of the “List B” proteins. The HuProt™ microarray is not restricted to a particular type of surface coating, although the default is glass coated with ultrathin nitrocellulose film for the non-covalent, yet irreversible, capture of active proteins to the surface.
Samples of humanised 7B1F3 and mouse 7B1F3 antibodies were analysed for binding specificities on HuProt™ human proteome arrays. A peptide with the sequence TDVLNQSKPVTL (“Peptide 3”) was added to the arrays at 0.1 mg/ml as a control.
After blocking, the arrays were probed with the antibody samples (0.1 μg/ml) at room temperature for 1 hour. Then the arrays were washed with TBST for 10 min×3 and probed with Alexa647-anti-human IgG Fc or Alexa647-anti-mouse IgG secondary antibodies under conditions optimized by CDI Labs for signal detection.
• Non-specific hits that directly bind to the secondary antibodies were eliminated from the analysis of the samples. • CDI software was used to quantify the specificity of each individual sample to specific proteins on the array based on Z Scores. • Z score is the average Z score of the duplicate spots of a given protein (each protein is printed in duplicate on a HuProt™ array). The Z score of each spot on a given array is calculated according to the algorithm below:
Z=[F635−F635(avg)]/F635(std) • F635(avg) and F635(std) are the average and standard deviation of the F635 values of all spots on the array, respectively. • S score is the difference of the Z Scores of a given protein and the one ranked next to it. If the S score of the top hit is >3, the antibody is considered to be highly specific for the top hit. • F635 is the average foreground signal intensity of 2 replicate spots of a given protein in the detection channel (635 nm). • B635 is the average background signal intensity of 2 replicate spots of a given protein in the detection channel (635 nm).

B1: 13-5G6-1D3 rAb: recombinant antibody product of US28-13-5G6-1D3 produced in HEK293-F cells (antibody)
heavy: EVKLVESGGGLVQPGGSLRLACATSGFTFTDYYMSWVRQPPGKALEWLGFIRSKANGYTTEYSASVKGRFTISRDNSQSILYLQMNTLRSEDSATYYCARDERRTAWLAYWGQGTLVTVSAAKTTPPSVYPLAPGSAAQTNSMVTLGCLVKGYFPEPVTVTWNSGSLSSGVHTFPAVLQSDLYTLSSSVTVPSSTWPSETVTCNVAHPASSTKVDKKIVPRDCGCKPCICTVPEVSSVFIFPPKPKDVLTITLTPKVTCVVVDISKDDPEVQFSWFVDDVEVHTAQTQPREEQFNSTFRSVSELPIMHQDWLNGKEFKCRVNSAAFPAPIEKTISKTKGRPKAPQVYTIPPPKEQMAKDKVSLTCMITDFFPEDITVEWQWNGQPAENYKNTQPIMDTDGSYFIYSKLNVQKSNWEAGNTFTCSVLHEGLHNHHTEKSLSHSPGK
light: DVLMTQTPLSLPVSLGDQASISCRSSQSIVHSNGNTYLDWYLQKPGQSPKLLIYKVSNRFSGVPDRFSGSGSGTDFTLKISRVEAEDLGVYYCFQGSHVPTWTFGGGTKLEIKRADAAPTVSIFPPSSEQLTSGGASVVCFLNNFYPKDINVKWKIDGSERQNGVLNSWTDQDSKDSTYSMSSTLTLTKDEYERHNSYTCEATHKTSTSPIVKSFNRNEC
With B1, in assay [1], the “surface binding to CHO cells, percent of cells” value amounted to 0.77%.

B2: 7B1F3: mouse IgG1 kappa antibody against US28 ECD1 Peptide-N; VH SEQ ID NO: 211, VL SEQ ID NO: 213 (antibody, V domains shown)
VH: EVQLQQSGAELAKPGASVKMSCKASGYTFTNYWMHWVKQRPGQGLEWIGYVNPRTGYTEYNQKFKDKATLTADKSSRTAYMQLSSLTSEDSAVYSCARILNGTGFAYWGQGTLVTVSA
VL: DIVLTQSPSSLTVSVGEKFTMSCKSSQSLLYSSNQKNYLAWYQQKPGQSPKLLIYWASTRESGVPDRFTGSGSGTDFTLAISSVKPEDLAIYYCQQYYSFPLTFGAGTKLEIK
modifications: Mature form of VH sequence of 7B1F3, without the leader sequence; Mature form of VL sequence of 7B1F3, without the leader sequence
Take B2: in assay [2], the F635 stood at 2210 and the “Z Score” value is listed as 6.3.
